Experimental data reported in article PMC4615246 (Nucleus, 2015).

Tests used:
Experiment in all cases: LacI/LacO array recruitment in cells
LacI-CFP-Nup107 = biological target: T1, LacI-CFP-Nup107 (human, UniProt P57740 1-925)
T1 sequence: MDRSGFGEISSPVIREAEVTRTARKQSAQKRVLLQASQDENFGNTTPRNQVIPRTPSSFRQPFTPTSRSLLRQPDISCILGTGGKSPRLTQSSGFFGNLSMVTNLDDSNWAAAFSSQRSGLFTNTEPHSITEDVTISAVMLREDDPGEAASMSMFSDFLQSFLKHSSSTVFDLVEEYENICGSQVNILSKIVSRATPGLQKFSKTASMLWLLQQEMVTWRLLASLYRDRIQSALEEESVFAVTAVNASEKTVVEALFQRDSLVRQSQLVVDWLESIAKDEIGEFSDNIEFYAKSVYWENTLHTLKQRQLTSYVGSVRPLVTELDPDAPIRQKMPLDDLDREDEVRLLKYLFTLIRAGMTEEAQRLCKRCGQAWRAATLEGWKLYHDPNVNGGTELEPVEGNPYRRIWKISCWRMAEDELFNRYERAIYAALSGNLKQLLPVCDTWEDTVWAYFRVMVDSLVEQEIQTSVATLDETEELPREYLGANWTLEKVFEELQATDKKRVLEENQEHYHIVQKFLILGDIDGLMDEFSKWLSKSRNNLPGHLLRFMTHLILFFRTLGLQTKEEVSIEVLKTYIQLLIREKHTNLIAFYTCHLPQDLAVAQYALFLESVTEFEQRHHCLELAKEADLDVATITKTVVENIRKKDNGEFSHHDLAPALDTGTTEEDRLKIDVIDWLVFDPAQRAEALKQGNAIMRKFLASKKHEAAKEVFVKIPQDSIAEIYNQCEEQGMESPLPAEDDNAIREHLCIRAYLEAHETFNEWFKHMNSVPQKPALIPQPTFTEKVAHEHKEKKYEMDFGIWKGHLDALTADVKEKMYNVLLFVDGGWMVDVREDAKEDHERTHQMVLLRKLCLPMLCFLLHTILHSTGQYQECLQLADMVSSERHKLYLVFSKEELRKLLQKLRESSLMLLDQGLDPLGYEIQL

LacI-CFP-Nup50 = biological target: T2, LacI-CFP-Nup50 (human, UniProt Q9UKX7 1-468)
T2 sequence: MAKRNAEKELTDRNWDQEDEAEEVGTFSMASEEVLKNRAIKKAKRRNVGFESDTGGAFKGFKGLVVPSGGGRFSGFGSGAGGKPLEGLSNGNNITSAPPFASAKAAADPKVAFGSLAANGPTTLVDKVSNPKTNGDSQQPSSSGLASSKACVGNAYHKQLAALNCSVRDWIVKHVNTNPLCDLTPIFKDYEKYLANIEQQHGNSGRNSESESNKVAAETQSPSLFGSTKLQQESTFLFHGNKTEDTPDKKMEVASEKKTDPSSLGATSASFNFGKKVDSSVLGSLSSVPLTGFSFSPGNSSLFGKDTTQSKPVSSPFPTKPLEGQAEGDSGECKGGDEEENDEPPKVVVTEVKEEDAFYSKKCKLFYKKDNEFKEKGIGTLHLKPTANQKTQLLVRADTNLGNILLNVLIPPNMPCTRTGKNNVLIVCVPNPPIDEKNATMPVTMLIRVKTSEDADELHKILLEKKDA

LacI-CFP-Nup214 = LacI-CFP-Nup214 (human, UniProt P35658 1-2090)
LacI-CFP-Nup214, sequence (P35658 whole entry): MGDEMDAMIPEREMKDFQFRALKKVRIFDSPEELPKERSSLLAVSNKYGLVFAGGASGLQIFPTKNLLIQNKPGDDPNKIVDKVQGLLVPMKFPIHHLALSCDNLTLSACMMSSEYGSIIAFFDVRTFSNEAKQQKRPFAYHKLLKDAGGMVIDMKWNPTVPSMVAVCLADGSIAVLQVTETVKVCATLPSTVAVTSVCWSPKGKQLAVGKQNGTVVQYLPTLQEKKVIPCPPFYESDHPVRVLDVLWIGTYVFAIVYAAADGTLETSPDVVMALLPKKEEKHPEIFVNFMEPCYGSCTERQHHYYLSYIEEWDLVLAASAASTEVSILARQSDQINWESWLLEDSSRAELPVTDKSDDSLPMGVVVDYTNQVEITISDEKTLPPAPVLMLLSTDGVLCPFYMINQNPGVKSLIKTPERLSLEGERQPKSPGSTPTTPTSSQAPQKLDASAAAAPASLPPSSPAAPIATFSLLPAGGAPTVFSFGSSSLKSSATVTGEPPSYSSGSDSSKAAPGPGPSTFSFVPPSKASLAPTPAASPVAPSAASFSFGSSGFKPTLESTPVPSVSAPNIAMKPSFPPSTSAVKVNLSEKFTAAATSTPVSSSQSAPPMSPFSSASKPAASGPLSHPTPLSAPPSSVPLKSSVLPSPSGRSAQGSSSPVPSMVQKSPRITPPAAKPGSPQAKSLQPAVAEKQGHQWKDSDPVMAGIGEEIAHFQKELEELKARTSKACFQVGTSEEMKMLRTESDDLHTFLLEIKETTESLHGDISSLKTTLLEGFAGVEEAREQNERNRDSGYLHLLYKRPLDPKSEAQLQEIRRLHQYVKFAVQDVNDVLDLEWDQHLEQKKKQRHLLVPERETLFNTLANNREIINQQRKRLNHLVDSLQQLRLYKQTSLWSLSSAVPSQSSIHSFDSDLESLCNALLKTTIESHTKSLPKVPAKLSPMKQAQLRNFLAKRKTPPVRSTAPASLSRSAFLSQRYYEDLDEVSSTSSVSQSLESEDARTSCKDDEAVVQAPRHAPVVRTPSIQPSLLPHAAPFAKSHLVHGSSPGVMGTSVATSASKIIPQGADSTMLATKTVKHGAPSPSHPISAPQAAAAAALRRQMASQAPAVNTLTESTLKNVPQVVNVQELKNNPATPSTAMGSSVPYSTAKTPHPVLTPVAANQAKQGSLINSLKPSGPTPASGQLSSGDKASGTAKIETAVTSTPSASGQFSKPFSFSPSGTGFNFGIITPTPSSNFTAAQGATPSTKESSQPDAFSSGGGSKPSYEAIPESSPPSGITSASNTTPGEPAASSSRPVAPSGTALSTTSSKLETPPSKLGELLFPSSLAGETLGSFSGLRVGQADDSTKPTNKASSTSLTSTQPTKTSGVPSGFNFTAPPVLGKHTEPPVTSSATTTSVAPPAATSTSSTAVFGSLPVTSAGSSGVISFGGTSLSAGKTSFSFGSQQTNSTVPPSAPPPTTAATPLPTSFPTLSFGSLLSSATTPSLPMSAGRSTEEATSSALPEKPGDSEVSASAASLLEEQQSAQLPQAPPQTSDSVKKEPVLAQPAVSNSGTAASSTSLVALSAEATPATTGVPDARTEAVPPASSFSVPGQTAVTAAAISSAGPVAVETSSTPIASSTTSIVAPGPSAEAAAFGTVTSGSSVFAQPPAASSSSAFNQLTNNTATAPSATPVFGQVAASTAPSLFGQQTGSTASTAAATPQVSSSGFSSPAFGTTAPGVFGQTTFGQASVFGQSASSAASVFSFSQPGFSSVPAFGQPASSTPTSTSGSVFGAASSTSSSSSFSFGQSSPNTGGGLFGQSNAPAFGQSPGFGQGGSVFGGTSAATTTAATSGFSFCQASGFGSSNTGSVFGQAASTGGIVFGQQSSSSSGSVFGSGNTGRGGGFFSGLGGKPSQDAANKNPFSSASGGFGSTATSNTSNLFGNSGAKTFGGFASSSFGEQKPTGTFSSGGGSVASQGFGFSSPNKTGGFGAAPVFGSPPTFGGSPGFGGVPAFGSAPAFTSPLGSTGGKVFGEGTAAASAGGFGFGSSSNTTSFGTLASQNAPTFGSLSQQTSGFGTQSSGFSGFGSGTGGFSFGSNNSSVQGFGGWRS

LacI-CFP-Nup153 = biological target: T3, LacI-CFP-Nup153 (human, UniProt P49790 1-1475)
T3 sequence: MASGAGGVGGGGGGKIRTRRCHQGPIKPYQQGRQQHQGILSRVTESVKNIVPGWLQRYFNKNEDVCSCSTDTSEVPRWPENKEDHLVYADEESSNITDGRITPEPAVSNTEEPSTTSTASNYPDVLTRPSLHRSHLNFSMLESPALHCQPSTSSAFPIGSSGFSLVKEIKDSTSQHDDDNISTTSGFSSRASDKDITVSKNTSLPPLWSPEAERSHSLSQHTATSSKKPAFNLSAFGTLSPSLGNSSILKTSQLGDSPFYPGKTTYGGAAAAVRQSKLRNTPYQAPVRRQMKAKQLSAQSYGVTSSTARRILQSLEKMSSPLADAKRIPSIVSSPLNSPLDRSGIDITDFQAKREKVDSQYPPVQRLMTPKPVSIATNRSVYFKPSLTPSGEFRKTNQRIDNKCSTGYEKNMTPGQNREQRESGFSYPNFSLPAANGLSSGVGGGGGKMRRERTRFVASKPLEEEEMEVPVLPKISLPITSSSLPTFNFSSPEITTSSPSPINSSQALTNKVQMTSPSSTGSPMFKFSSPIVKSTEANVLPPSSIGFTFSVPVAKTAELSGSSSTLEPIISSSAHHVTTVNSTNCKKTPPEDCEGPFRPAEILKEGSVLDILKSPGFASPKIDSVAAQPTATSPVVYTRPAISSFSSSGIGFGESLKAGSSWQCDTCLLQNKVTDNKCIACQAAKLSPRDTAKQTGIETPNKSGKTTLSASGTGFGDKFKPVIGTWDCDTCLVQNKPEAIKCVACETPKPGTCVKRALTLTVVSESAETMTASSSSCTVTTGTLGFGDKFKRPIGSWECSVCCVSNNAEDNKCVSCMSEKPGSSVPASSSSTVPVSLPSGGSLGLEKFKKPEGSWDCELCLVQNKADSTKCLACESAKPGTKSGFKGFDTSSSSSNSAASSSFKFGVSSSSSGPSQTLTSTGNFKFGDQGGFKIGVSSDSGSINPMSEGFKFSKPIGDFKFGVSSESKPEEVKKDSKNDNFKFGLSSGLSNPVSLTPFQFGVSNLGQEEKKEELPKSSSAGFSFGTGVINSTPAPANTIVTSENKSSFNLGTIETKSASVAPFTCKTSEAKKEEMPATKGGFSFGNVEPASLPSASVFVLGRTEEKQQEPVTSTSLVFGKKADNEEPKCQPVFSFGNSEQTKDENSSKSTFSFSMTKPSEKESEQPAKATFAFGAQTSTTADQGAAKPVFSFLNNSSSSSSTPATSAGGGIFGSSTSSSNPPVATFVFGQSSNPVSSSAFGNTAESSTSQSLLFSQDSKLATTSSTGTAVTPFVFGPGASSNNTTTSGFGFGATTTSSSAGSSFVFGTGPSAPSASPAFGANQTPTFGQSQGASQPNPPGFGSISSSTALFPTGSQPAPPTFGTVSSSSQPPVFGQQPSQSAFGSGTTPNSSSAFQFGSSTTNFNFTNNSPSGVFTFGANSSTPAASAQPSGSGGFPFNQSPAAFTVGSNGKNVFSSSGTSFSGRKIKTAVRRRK

B1: Nup133 (endogenous) (natural protein)
chain: MFPAAPSPRTPGTGSRRGPLAGLGPGSTPRTASRKGLPLGSAVSSPVLFSPVGRRSSLSSRGTPTRMFPHHSITESVNYDVKTFGSSLPVKVMEALTLAEVDDQLTINIDEGGWACLVCKEKLIIWKIALSPITKLSVCKELQLPPSDFHWSADLVALSYSSPSGEAHSTQAVAVMVATREGSIRYWPSLAGEDTYTEAFVDSGGDKTYSFLTAVQGGSFILSSSGSQLIRLIPESSGKIHQHILPQGQGMLSGIGRKVSSLFGILSPSSDLTLSSVLWDRERSSFYSLTSSNISKWELDDSSEKHAYSWDINRALKENITDAIWGSESNYEAIKEGVNIRYLDLKQNCDGLVILAAAWHSADNPCLIYYSLITIEDNGCQMSDAVTVEVTQYNPPFQSEDLILCQLTVPNFSNQTAYLYNESAVYVCSTGTGKFSLPQEKIVFNAQGDSVLGAGACGGVPIIFSRNSGLVSITSRENVSILAEDLEGSLASSVAGPNSESMIFETTTKNETIAQEDKIKLLKAAFLQYCRKDLGHAQMVVDELFSSHSDLDSDSELDRAVTQISVDLMDDYPASDPRWAESVPEEAPGFSNTSLIILHQLEDKMKAHSFLMDFIHQVGLFGRLGSFPVRGTPMATRLLLCEHAEKLSAAIVLKNHHSRLSDLVNTAILIALNKREYEIPSNLTPADVFFREVSQVDTICECLLEHEEQVLRDAPMDSIEWAEVVINVNNILKDMLQAASHYRQNRNSLYRREESLEKEPEYVPWTATSGPGGIRTVIIRQHEIVLKVAYPQADSNLRNIVTEQLVALIDCFLDGYVSQLKSVDKSSNRERYDNLEMEYLQKRSDLLSPLLSLGQYLWAASLAEKYCDFDILVQMCEQTDNQSRLQRYMTQFADQNFSDFLFRWYLEKGKRGKLLSQPISQHGQLANFLQAHEHLSWLHEINSQELEKAHATLLGLANMETRYFAKKKTLLGLSKLAALASDFSEDMLQEKIEEMAEQERFLLHQETLPEQLLAEKQLNLSAMPVLTAPQLIGLYICEENRRANEYDFKKALDLLEYIDEEEDININDLKLEILCKALQRDNWSSSDGKDDPIEVSKDSIFVKILQKLLKDGIQLSEYLPEVKDLLQADQLGSLKSNPYFEFVLKANYEYYVQGQI
Q: What does the source list for B1?
A: percent of transfected cells showing colocalization (LacI-CFP-Nup107): 94%; percent of transfected cells showing colocalization (LacI-CFP-Nup50): 11%; percent of transfected cells showing colocalization (LacI-CFP-Nup214): 35%; percent of transfected cells showing colocalization (LacI-CFP-Nup153): 35%
